From paper PMC8039031

Target: CREPT (RPRD1B) (UniProt Q9NQG5)
Test: co-IP
Conditions: reference: wild type; sites Y705

- binding against the reference: lost
Substance: STAT3 (from UniProt P40763) Y705F
